Measurements reported in PMC8550791.

Target: K48-linked pentaubiquitin (UniProt P0CG48)

Km of steady-state kinetics of cleavage of fluorescently labeled K48-linked pentaUb, against MINDY1 WT: 3 fold lower
Substance: MINDY1 P138A (residues 110-384) (from UniProt Q8N5J2 110-384) (domain or fragment)
